Assay [1] addresses T1, HCoV-HKU1 RBD (residues 310-606 of isolate N5), Fc- and His-tagged (Human coronavirus HKU1, isolate N5, UniProt Q0ZME7).
T1 construct: also called HCoV-HKU1 S1-CTD; not shown: Fc-tag, C-terminal, kept; 8X HisTag, C-terminal, kept
As to the kind of experiment: SPR. The following applies: both partners purified.

For assay [2], the target named is T2, HCoV-HKU1 RBD (residues 310-606 of isolate N5), as used in BLI (Human coronavirus HKU1, isolate N5, UniProt Q0ZME7).
T2 construct: source: FreeStyle 293-F, transfected (PEI), purified (Protein A, Superdex 200)
T2 sequence (Q0ZME7 310-606): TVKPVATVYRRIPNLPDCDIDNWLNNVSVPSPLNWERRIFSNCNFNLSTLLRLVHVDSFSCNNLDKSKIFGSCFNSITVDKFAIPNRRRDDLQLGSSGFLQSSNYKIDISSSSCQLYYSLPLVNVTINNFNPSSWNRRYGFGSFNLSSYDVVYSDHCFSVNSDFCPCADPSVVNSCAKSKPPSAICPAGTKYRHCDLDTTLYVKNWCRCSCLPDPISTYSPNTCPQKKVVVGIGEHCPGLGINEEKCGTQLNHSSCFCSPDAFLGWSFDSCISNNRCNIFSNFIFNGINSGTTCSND
As to the kind of experiment: BLI. The following applies: both partners purified.

T1 sequence (Q0ZME7 310-606): as above

B1: H501-008 Fab (Fab, V domains shown)
VH: QVQLVQSGGGVVQPGRSLRLSCAVSGFTLDRYAMHWVRQAPGKALEWVALMSADGREQYYAESVKGRFTFSRDSSKNTLYLQMHNLRTDDSSVYFCAREGPMYYDAWSGRSYYNNYALDVWGRGTTVAVSS
VL: QSVLTQPPSVSAAPGQTVTISCSGSSSNIGDNYVSWYQQVPGTAPRLLVYDNNRRPLGIPDRFSGSKSGTSATLAIAGLQTGDEADYYCGTWDSSLSAGVFGGGTKLTVV
notes: also called H501–08 Fab
As a reminder, the Kd is the equilibrium constant for the complex coming apart. Higher therefore signals a looser complex. In the case of B1, binding in assay [1] was characterised by a dissociation constant (Kd) of 0.161 nM.

B2: H501-008 IgG (antibody, V domains shown)
VH: QVQLVQSGGGVVQPGRSLRLSCAVSGFTLDRYAMHWVRQAPGKALEWVALMSADGREQYYAESVKGRFTFSRDSSKNTLYLQMHNLRTDDSSVYFCAREGPMYYDAWSGRSYYNNYALDVWGRGTTVAVSS
VL: QSVLTQPPSVSAAPGQTVTISCSGSSSNIGDNYVSWYQQVPGTAPRLLVYDNNRRPLGIPDRFSGSKSGTSATLAIAGLQTGDEADYYCGTWDSSLSAGVFGGGTKLTVV
notes: also called H501–08; mAb H501–008; copies: 2 + 2
Usually koff stands for a measure of how fast the partners let go of each other. Low values mean a long-lived complex, high ones a short-lived complex. For orientation: kon means the second-order rate constant of association. The low end stands for slow association, the high end for fast association. In assay [2], B2 showed a Kd of 0.937 nM, an off-rate (koff) of 0.000315 s⁻¹ and a kon of 336000 M⁻¹ s⁻¹.

B3: H501-022 IgG (antibody, V domains shown)
VH: QGTLKESGPMLVKPTQTLTLTCNFSGFSLSTSGVGVGWIRQPPGKALECLALIYWNDDQRYSPSLKTRLTITKDTSKNQVVLTMTNMDPVDTATYYCVYSMSRPVAGGVIDHWGQGTLVTVSS
VL: DIQLTQSPSSLSASEGDRVTITCWASQNIRGYLNWYQQKPGKAPKLLIYATSTLESGVPSRFSGSGSVTDYTLTISSLQPEDFATYSCQQSYSSPPTFGGGTKVDIK
notes: also called mAb H501–022; H-022; copies: 2 + 2
In assay [2], B3 displayed a Kd of 2.01 nM, an off-rate (koff) of 0.000555 s⁻¹ and a kon of 276000 M⁻¹ s⁻¹.

B4: H501-018 IgG (antibody, V domains shown)
VH: QVQLQESGPGLVKPSETLSLTCSVSGGSISNFYWSWIRQPPGKGLEWIGYIYYTGSSEYNPSLKSRVILSVDTSKNHFSLKLSSVTAADTAIYYCARGTWSRRLEVDLWGQGTLVTVSS
VL: QSVLTQPPSASGTPGQRVTISCSGSSSNIGSNYVYWYQQLPGTAPKLLIYRSIQRPSGVPDRFSGSKSGTSASLAISGLRSEDEADYYCATWDDSLNSWVFAGGTKLTVL
notes: also called mAb H501–018; H-018; copies: 2 + 2
On to B4, for which, in assay [2], the dissociation constant (Kd) turned out to be 0.37 nM, the off-rate (koff) is 0.000105 s⁻¹ and the association rate constant (kon) came to 283000 M⁻¹ s⁻¹.

These data come from doi:10.1101/2025.10.29.685445 (bioRxiv, 2025).
